Earlier results on 1 molecule are cited in patent publication US7101894B2 (priority 2001, dated 2006).

The target of the series is CMV US28 (Human cytomegalovirus, UniProt P69332). Particulars: binding of Fractalkine to US28.
Sequence of CMV US28 (P69332 whole entry): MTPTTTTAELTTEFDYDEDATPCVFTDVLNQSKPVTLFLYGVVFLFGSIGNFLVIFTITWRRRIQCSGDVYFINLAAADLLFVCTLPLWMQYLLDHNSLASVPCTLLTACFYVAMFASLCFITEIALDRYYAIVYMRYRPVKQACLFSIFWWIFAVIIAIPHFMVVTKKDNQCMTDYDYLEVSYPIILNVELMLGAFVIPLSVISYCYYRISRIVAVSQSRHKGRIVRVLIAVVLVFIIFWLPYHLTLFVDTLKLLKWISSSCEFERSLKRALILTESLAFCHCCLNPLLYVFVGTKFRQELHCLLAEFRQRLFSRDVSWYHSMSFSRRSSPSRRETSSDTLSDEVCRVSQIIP

B1: Fractalkine: the CX3C chemokine, binds US28; used 125I-labeled as radioligand (protein, UniProt P78423 25-397, looked up)
Fractalkine: QHHGVTKCNITCSKMTSKIPVALLIHYQQNQASCGKRAIILETRQHRLFCADPKEQWVKDAMQHLDRQAAALTRNGGTFEKQIGEVKPRTTPAAGGMDESVVLEPEATGESSSLEPTPSSQEAQRALGTSPELPTGVTGSSGTRLPPTPKAQDGGPVGTELFRVPPVSTAATWQSSAPHQPGPSLWAEAKTSEAPSTQDPSTQASTASSPAPEENAPSEGQRVWGQGQSPRPENSLEREEMGPVPAHTDAFQDWGPGSMAHVSVVPVSSEGTPSREPVASGSWTPKAEEPIHATMDPQRLGVLITPVPDAQAATRRQAVGLLAFLGLLFCLGVAMFTYQSLQGCPRKMAGEMAEGLRYIPRSCGSNSYVLVPV
modifications: 125I label
notes: used 125I-labeled as radioligand
As to B1, the Ki is about 50 pM.
